# ± gives the uncertainty stated by the source.
# B1: V(D)J recombination-activating protein 2, residues 415 to 491; numbered along this chain, P55895 (parent)
# chain: YWITCCPTCDVDINTWVPFYSTELNKPAMIYCSHGDGHWVHAQCMDLAERTLIHLSAGSNKYYCNEHVEIARALHTP
# Variants of: B1
# Assay: abundance fitness (aPCA) (normalised: wild type 0, dead -1); higher = more abundant; growth selection in yeast, the domain comes from the species named
# Settings: Homo sapiens
row,Variant,abundance fitness
1,S33Q,-0.091 ± 0.063
2,L52H,-0.597 ± 0.42
3,L52D,-0.31 ± 0.18
4,L52P,-0.423 ± 0.083
5,L52V,-0.033 ± 0.074
6,H34Q,0.051 ± 0.085
7,H34T,-0.234 ± 0.11
8,H34S,-0.032 ± 0.07
9,D46S,0.102 ± 0.055
10,D46H,-0.071 ± 0.11
11,D46Y,-0.113 ± 0.12
12,D46G,-0.03 ± 0.055
13,Y31D,-0.28 ± 0.15
14,Y31W,-0.193 ± 0.062
15,Y31I,-0.649 ± 0.26
16,A57D,0.04 ± 0.18
17,A57E,-0.03 ± 0.075
18,A57N,0.057 ± 0.11
19,A57M,-0.156 ± 0.12
20,A57V,-0.14 ± 0.077
21,E66H,-0.22 ± 0.17

row,Variant,abundance fitness
1,E66I,-0.17 ± 0.11
2,E66F,-0.193 ± 0.22
3,E66G,0.006 ± 0.054
4,E66T,-0.063 ± 0.13
5,E66C,0.023 ± 0.11
6,I70Y,0.064 ± 0.14
7,I70L,0.03 ± 0.073
8,I70N,-0.169 ± 0.18
9,I70M,0.02 ± 0.077
10,I70P,-0.216 ± 0.22
11,I70S,-0.145 ± 0.14
12,I70R,0.015 ± 0.03
13,N60S,-0.062 ± 0.062
14,N60P,-0.118 ± 0.08
15,W2H,-0.11 ± 0.19
16,W2V,-0.853 ± 0.11
17,W2R,-0.378 ± 0.054
18,F19R,-0.145 ± 0.12
19,F19D,0.099 ± 0.32
20,Y1W,-0.19 ± 0.037
21,Y1V,-0.008 ± 0.08

row,Variant,abundance fitness
1,Y1K,-0.365 ± 0.17
2,Y1D,-0.108 ± 0.21
3,Y1G,-0.102 ± 0.075
4,Y1M,-0.041 ± 0.089
5,Y1E,-0.063 ± 0.2
6,C44F,-0.952 ± 0.31
7,C44A,-1.02 ± 0.13
8,C44N,-0.732 ± 0.32
9,C44H,-1.09 ± 0.3
10,C44K,-1.23 ± 0.38
11,C44Y,-0.961 ± 0.22
12,C44G,-1.01 ± 0.11
13,C44P,-0.943 ± 0.12
14,C44R,-1.02 ± 0.1
15,P27G,-1.09 ± 0.27
16,P27C,-0.938 ± 0.32
17,P27V,-0.668 ± 0.21
18,P27A,-0.776 ± 0.44
19,I53P,-0.163 ± 0.2
20,I53F,-0.013 ± 0.19
21,I53V,-0.048 ± 0.096

row,Variant,abundance fitness
1,I53C,-0.056 ± 0.12
2,I53M,0.041 ± 0.1
3,I53N,0.244 ± 0.49
4,W16C,-0.553 ± 0.23
5,W16F,-0.725 ± 0.42
6,A48G,-0.078 ± 0.076
7,A48W,-0.04 ± 0.089
8,A48Q,0.105 ± 0.067
9,A48T,0.026 ± 0.09
10,T8R,-0.204 ± 0.2
11,T8K,-0.123 ± 0.17
12,W39D,-0.536 ± 0.093
13,W39F,-0.105 ± 0.074
14,G58E,0.041 ± 0.089
15,G58R,-0.165 ± 0.076
16,G58I,-0.003 ± 0.39
17,G58N,-0.426 ± 0.19
18,G58D,0.016 ± 0.096
19,G58V,-0.161 ± 0.084
20,G58K,-0.063 ± 0.13

# From the Human Domainome abundance scans (Beltran et al. 2025)
